Residue numbers refer to the chain shown, from its start.

As usually defined, the Kd is a measure of binding affinity in units of concentration. One may read the koff as a measure of how fast the partners let go of each other. Higher therefore signals fast dissociation. As a reminder, the kon is the second-order rate constant of association. A lower kon goes with slow association.

In one assay the target is T1, biotinylated GITR (human, UniProt Q9Y5U5 26-161, limits assumed, biotinylated (sites not given)).
T1 construct: also called GITR-bio; Biotin-GITR
T1 sequence: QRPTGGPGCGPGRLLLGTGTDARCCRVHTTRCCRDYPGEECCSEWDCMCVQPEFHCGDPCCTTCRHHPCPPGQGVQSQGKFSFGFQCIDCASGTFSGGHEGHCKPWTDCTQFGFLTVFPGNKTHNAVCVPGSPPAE
As to the kind of experiment: BLI (Octet), biotin-GITR on streptavidin tips, antibody supernatant. The protocol: Several hundred germlined antibodies were selected based on binding kinetics as determined by Octet measurements (Octet RED 96 system; ForteBio™ Inc., Menlo Park, Calif.). The experimental procedure was configured according to the instruction manual of the instrument. Biotin-GITR was bound to Streptavidin biosensor (SA) and PBS (pH 7.4) was used as a blank control. Briefly, the interaction analyses were conducted at 30° C. in running buffer (PBS, 0.05% Tween, pH7.4). Sensor tips were pre-wet for 10 minutes in running buffer immediately prior to use, and the micro plates used in the Octet were filled with 200 μl of sample or buffer per well and agitated at 800 rpm. For the experiments, commercially available precoated SA tips were used. Biotinylated GITR was loaded onto the ForteBio SA fibers in PBS pH7.4 for 10 minutes and washed for 4 minutes. For the association phase, the ligand-coated SA tips were immersed for 5 minutes in cell culture supernatant that was diluted 1:10 in running buffer prior to the measurement. Dissociation of the antibody-antigen complex was measured in wells containing the Octet buffer alone for 5 minutes. After each run, the tips were regenerated with Glycine (10 mM, pH 2.0). Affinity, Kₒₙ and Koff were determined with Octet evaluation software v6.3 using a 1:1 binding model with local full fitting.
A general note: BLI is a label-free optical method that tracks binding on a fibre tip over time.

Assay [1] deals with T2, GITR antigen (R&D systems, di-sulfide-linked homodimer; 689-GR) (human, UniProt Q9Y5U5 26-161).
T2 construct: Bought
T2 sequence: T1 sequence
As to the kind of experiment: SPR (BIAcore T100/T200), antibody captured via anti-human Fab, GITR antigen 40/10/2.5 nM, 1:1 model. On the procedure: All interactions were analyzed at 25° C. using 1× DPBS (PAA, H15-002) plus P20 (0.05%, Pierce, 28320) as running buffer. Anti-GITR antibodies (8 μg/ml in running buffer) were captured to the chip surface of a CM5 sensor chip (GE Healthcare, Series S CM5, BR-1005-30) via an immobilized anti-human Fab antibody (GE Healthcare, Fab Capture Kit, 28958325). To detect unspecific interactions of the GITR antigen, antibody capture was only performed in flow cell 2, whereas in flow cell 1 only the capturing antibody was immobilized. In addition, an unrelated antibody (anti-IL-1β; SK48E26; International Publication No. WO 95/001997) was used to assess specificity of GITR binding. After capture of the anti-GITR antibodies GITR antigen (R&D systems, di-sulfide-linked homodimer; 689-GR) was run through both flow cells in different amounts (40 nM, 10 nM and 2.5 nM) for each antibody. Also a blank curve (running buffer only) was included in each run. Association was run for 90 s and dissociation for 600 s with a flow rate of 10 μl/min. After each run a regeneration step was performed with 10 mM Glycine pH2.0 (GE Healthcare, BR-1003-55) for 60 s with 30 μl/min. Binding curves were evaluated using BIAcore® T200 evaluation software version 2.0.1 applying a Langmuir 1:1 model with global fit of Rmax.

A further assay addresses T3, recombinant mouse GITR (mouse, UniProt O35714 20-153, limits assumed).
T3 construct: also called Mu GITR recomb protein; immobilized mouse GITR
T3 sequence (looked up): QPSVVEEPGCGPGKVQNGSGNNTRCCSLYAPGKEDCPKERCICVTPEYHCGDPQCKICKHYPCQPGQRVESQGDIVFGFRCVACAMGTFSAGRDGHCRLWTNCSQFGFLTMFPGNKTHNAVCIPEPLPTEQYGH
In words: Western blot, non-reducing. The protocol: The specificity of the anti-GITR-antibodies was tested by Western blot against purified recombinant human GITR, recombinant mouse GITR, CMS5a cells transfected with human GITR, wild-type CMS5a cells, activated CD4⁺ T cells and untreated CD4⁺ T cells. The Western blot, under non-reducing conditions, is depicted in FIG. 1. The anti-GITR antibodies were reactive with purified recombinant human GITR, not reactive with recombinant mouse GITR, reactive with recombinant human GITR in CMS5a cells, and reactive with natural human GITR in activated CD4⁺ T cells.
(In general: Immunoblotting shows a protein as a band on a membrane.)

Assay [2] deals with T4, purified recombinant human GITR protein (Example 1) (human, UniProt Q9Y5U5 26-162, limits assumed).
T4 construct: also called Hu GITR recomb protein; immobilized huGITR
T4 sequence: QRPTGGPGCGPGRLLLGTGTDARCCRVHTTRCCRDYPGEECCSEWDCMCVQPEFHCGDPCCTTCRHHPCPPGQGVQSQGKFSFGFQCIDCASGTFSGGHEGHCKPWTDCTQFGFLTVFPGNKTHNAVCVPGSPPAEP
In words: SPR (BIAcore), huGITR immobilized on CM5, antibody 6.25-100 nM. The protocol:
Analysis of ligand (GITR-L) and monoclonal antibody binding to immobilized huGITR was performed by surface plasmon resonance and measured on BIAcore®. GITR (˜1100 RU) was immobilized onto a CM5 sensor chip using standard amine coupling. Analytes were injected over the immobilized GITR for 15 minutes at a flow rate of 5 μl/min followed by a 10 minute dissociation period. After kinetic runs had been performed the affinity and dissociation constants were simultaneously calculated by BiaEvaluation® software (Biacore Life Sciences). Binding of human GITR-L was analysed over a concentration range of 12.5-200 nM and murine anti-GITR monoclonal antibodies were analysed over a concentration of 6.25-100 nM. […] Affinity and dissociation constants for the antibodies are tabulated below in Table 9.

B1: germline variant antibody 37 (H1916D07 / K1916D07) (antibody, V domains shown)
VH: QVQLVQSGTEVKKPGASVKVSCKGSGYTFTEYAMYWVRQAPGQGMEWIGLIRTFSGEVTYNQKFKDRVTMTVDTSISTAYMELSRLRSDDTAVYYCAKSGTVRGFAYWGQGTLVTVSS
VL: DIVMTQSPDSLAVSLGERATINCKSSQSLLNSGNQKNYLTWYQQKPGQPPKLLIYWASTRESGVPDRFTGSGSGTDFTLTISSLQAEDVAVYHCQNEYSYPYTFGQGTKLEIK
notes: IGHG1/IGKC expression vectors; measured from CHO culture supernatant; also called Antibody ID 37
In the assay with biotinylated GITR, B1 had a Kd of 0.0317 nM, a koff of 0.000242 s⁻¹ and an on-rate (kon) of 7.64e+06 M⁻¹ s⁻¹.

B2: germline variant antibody 42 (H1916E01 / K1916E01) (antibody, V domains shown)
VH: B1 VH with G24A, E31D, M45L, L50V, E57D, V58L, K65Q
VL: B1 VL with T40S, T69S, H93Y, E97D
notes: IGHG1/IGKC expression vectors; measured from CHO culture supernatant; also called Antibody ID 42
In the assay with biotinylated GITR, B2 had a dissociation constant (Kd) of 0.377 nM, a koff of 0.000157 s⁻¹ and a kon of 417000 M⁻¹ s⁻¹.

B3: germline variant antibody 97 (H1917G07 / K1917G07) (antibody, V domains shown)
VH: B1 VH with Y35H, E57G, V58L, T59S, K65R, T74K
VL: B1 VL with Q43H, L84V, Y100F
notes: IGHG1/IGKC expression vectors; measured from CHO culture supernatant; also called Antibody ID 97
In the assay with biotinylated GITR, B3 displayed a Kd of 1.43 nM, an off-rate constant (koff) of 0.000761 s⁻¹ and an on-rate constant (kon) of 534000 M⁻¹ s⁻¹.

B4: germline variant antibody 18 (H1916B09 / K1916B09) (antibody, V domains shown)
VH: B1 VH with G24A, E31G, K65R, D66G
VL: B1 VL with G33S, Q43H, L52M, L84V, H93Y, E97D
notes: IGHG1/IGKC expression vectors; measured from CHO culture supernatant; also called Antibody ID 18
In the assay with biotinylated GITR, B4 yielded a Kd of 3.77 nM, an off-rate constant (koff) of 0.000824 s⁻¹ and a kon of 219000 M⁻¹ s⁻¹.

B5: germline variant antibody 78 (H1917D01 / K1917D01) (antibody, V domains shown)
VH: QVQLVQSGAEVKKPGASVKVSCKGSGYTFTDYAMYWVRQAPGQGLEWIGVIKTYSGGVTYNQKFRDRATMTVDTSISTAYMELSRLRGDDTAVYYCAKSGTVRGFAYWGRGTLVTVSS
VL: B1 VL with Q43H, L52M, L84V, E97D
notes: IGHG1/IGKC expression vectors; measured from CHO culture supernatant; also called Antibody ID 78
In the assay with biotinylated GITR, B5 displayed a Kd of 1 nM, a koff of 0.000327 s⁻¹ and an on-rate constant (kon) of 325000 M⁻¹ s⁻¹.

B6: Hum231#1 (antibody, V domains shown)
VH: B5 VH with K52R, G57D, R65K, T74K, G88S, R110Q
VL: DIVMTQSPPTLSLSPGERVTLSCKSSQSLLNSGNQKNYLTWYQQKPGQAPRLLIYWASTRESGIPARFSGSGSGTDFTLTISSLQPEDFAVYHCQNDYSYPYTFGQGTKLEIK
notes: Variable regions cloned with IGHG1 (also IGHG4 and Fab vectors exist) and IGKC constant regions; format in each assay not always stated; also called humanized variant Hum231#1 (IGHV1-2*02 and IGK3-7*02)
In assay [1], B6 came in with a dissociation constant (Kd) of 0.702 nM, a koff of 0.00249 s⁻¹ and a kon of 3.55e+06 M⁻¹ s⁻¹.

B7: germline variant antibody 5 (H1916A06 / K1916A06) (antibody, V domains shown)
VH: B1 VH with T9A, Y35H, M45L, I48M, F54Y, E57G, K65R, D66G
VL: DIVMTQSPDSLAAPGERATINCKSSQSLLNSSNQKNYLTWYHQKPGQPPKLLIYWASTRESGVPDRFTGSGSGTDFTLTISSVQAEDVAVYYCQNEYSFPYTFGQGTKLEIK
notes: IGHG1/IGKC expression vectors; measured from CHO culture supernatant; also called Antibody ID 5
For B7, in the assay with biotinylated GITR, the affinity, expressed as Kd, was 1.63 nM; the koff stood at 0.000966 s⁻¹; the kon stood at 591000 M⁻¹ s⁻¹.

B8: germline variant antibody 21 (H1916C03 / K1916C03) (antibody, V domains shown)
VH: B1 VH with E31G, A33V, Y35H, L50V, E57D, T59S, K65R, D66E
VL: B1 VL with Q43H, T69S, L84V, E97D
notes: IGHG1/IGKC expression vectors; measured from CHO culture supernatant; also called Antibody ID 21
In the assay with biotinylated GITR, B8 yielded a Kd of 8.44 nM, a koff of 0.00261 s⁻¹ and a kon of 309000 M⁻¹ s⁻¹.

B9: germline variant antibody 49 (H1916E11 / K1916E11) (antibody, V domains shown)
VH: B5 VH with A9T, D31G, I48M, K52R, G57D, D66E, G88S, R110Q
VL: B1 VL with Q43H, T69S, L84V, E97D, Y100F
notes: IGHG1/IGKC expression vectors; measured from CHO culture supernatant; also called Antibody ID 49
Consider B9, for which, in the assay with biotinylated GITR, the Kd came to 2.09 nM, the off-rate (koff) was found to be 0.000707 s⁻¹ and the kon turned out to be 338000 M⁻¹ s⁻¹.

B10: germline variant antibody 20 (H1916B12 / K1916B12) (antibody, V domains shown)
VH: B1 VH with G24A, E31D, M45L, L50V, E57D, V58L, T59S, K65R, D66G
VL: B1 VL with L52M, I54L, L84V, E97D
notes: IGHG1/IGKC expression vectors; measured from CHO culture supernatant; also called Antibody ID 20
In the assay with biotinylated GITR, B10 gave a Kd of 1.35 nM, a koff of 0.00038 s⁻¹ and a kon of 283000 M⁻¹ s⁻¹.

B11: germline variant antibody 70 (H1917B04 / K1917B04) (antibody, V domains shown)
VH: B1 VH with G24A, E31G, L50V, F54Y, E57D, V68A
VL: B1 VL with T40S, T69S, E97D, Y100F
notes: IGHG1/IGKC expression vectors; measured from CHO culture supernatant; also called Antibody ID 70
Take B11: in the assay with biotinylated GITR, binding was put at a Kd of 2.01 nM, the koff amounted to 0.000879 s⁻¹ and the kon was determined as 437000 M⁻¹ s⁻¹.

B12: mAb 231-1039-45 (murine) (antibody, mouse IgG1, V domains shown)
VH: QVQLLQSGTELVRPGVSVKISCKGSGYTFTDYAMYWVKQSHAKSLEWIGVIRTYSGDVTYNQKFKDKATMTVDKSSSIAYMELARLSSEDSAIYYCAKSGTVRGFAYWGQGTLVTVSS
VL: DIVMTQSPSSLTVTAGEKVIMSCKSSQSLLNSGNQKNYLTWYQQKPGQPPKLLIYWASTRESGVPDRFTGSGSGTDFTLTISSVQAEDLAVYHCQNDYSYPYTFGGGTKLEIK
notes: Mouse IgG1 from hybridoma
In the case of B12, the binding result in the assay with recombinant mouse GITR is listed as “no binding”. Moreover, in assay [2], the Ka was determined as 4.2e+08 M⁻¹ and the dissociation constant (Kd) was 2.38 nM.

B13: mAb 231-32-15 (murine) (antibody, mouse IgG1, V domains shown)
VH: B12 VH
VL: B12 VL
notes: Mouse IgG1 from hybridoma; also called antibody 32-15
In the case of B13, the binding result with recombinant mouse GITR is recorded as “no binding”. In addition, in assay [2], the Ka amounted to 4.04e+08 M⁻¹ and the Kd came out at 2.47 nM.

B14: mAb 231-1042-7 (murine) (antibody, mouse IgG1, V domains shown)
VH: B12 VH
VL: B12 VL
notes: Mouse IgG1 from hybridoma
In the case of B14, the binding result with recombinant mouse GITR is recorded as “no binding”. For the same molecule, in assay [2], the Ka stood at 4.3e+08 M⁻¹ and the dissociation constant (Kd) came to 2.33 nM.

B15: mAb 231-1333-21 (murine) (antibody, mouse IgG1, V domains shown)
VH: B12 VH
VL: B12 VL
notes: Mouse IgG1 from hybridoma
In the case of B15, in the assay with recombinant mouse GITR, the binding result was “no binding”. Further, in assay [2], the Ka was determined as 4.19e+08 M⁻¹ and the Kd was 2.39 nM.

These data come from patent US20210070872A1 (AGENUS, published 2021).
